Columns and labels:
[1] = molecular target: Cynomolgus monkey DLL3 on HEK293 cells (HEK293-cyno DLL3) (Cynomolgus monkey); assay: flow cytometry, HEK293-cyno DLL3 cells
[2] = molecular target: human DLL3 on SHP-77 cells (human) (UniProt Q9NYJ7); assay: flow cytometry, SHP-77 cells
human DLL3 on SHP-77 cells (human), sequence (Q9NYJ7 27-618): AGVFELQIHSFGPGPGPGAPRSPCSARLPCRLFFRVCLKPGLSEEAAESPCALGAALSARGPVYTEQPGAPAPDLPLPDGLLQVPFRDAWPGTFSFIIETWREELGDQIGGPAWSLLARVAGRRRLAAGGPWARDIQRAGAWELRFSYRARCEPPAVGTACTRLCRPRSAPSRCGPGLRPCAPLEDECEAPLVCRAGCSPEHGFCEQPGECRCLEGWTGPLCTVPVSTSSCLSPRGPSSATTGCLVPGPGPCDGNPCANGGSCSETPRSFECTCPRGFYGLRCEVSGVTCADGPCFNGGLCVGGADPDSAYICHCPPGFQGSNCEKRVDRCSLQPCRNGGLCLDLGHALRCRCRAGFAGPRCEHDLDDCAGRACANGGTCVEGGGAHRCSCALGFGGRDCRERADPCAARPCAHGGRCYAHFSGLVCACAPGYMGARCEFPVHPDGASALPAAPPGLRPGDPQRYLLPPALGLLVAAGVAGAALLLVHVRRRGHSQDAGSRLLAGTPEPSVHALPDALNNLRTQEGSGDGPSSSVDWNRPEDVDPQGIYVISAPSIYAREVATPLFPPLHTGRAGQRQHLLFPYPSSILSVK

Cynomolgus monkey DLL3 on HEK293 cells (HEK293-cyno DLL3) (Cynomolgus monkey), sequence (Q9NYJ7 other isoform, or with tags, fused parts or gaps): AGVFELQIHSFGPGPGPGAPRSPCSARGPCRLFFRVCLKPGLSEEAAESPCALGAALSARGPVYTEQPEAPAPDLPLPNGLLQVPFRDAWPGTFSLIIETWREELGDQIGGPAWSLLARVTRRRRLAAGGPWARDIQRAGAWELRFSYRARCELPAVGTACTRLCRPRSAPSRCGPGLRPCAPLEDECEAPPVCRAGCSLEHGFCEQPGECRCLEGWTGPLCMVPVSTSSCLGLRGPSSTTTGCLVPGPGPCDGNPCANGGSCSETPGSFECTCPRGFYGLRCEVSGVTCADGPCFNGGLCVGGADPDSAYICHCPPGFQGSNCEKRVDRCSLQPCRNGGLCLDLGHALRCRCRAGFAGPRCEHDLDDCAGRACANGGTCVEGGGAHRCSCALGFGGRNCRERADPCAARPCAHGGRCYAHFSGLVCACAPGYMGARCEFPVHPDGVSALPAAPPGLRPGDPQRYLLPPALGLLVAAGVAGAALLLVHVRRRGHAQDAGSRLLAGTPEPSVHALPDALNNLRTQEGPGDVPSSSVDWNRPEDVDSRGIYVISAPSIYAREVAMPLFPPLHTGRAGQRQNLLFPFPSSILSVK

Work on Negative control antibody yielded a Top MFI [1] of 104 MFI and a Top MFI [2] of 92 MFI.

Source: US20240239878A1
